According to patent US20200317768A1 (published 2020):

Biological target: T1, human FcγRIIaR extracellular domain, His-tagged (human, UniProt P12318 34-217)
T1 construct: also called human FcγRIIa (type R); FcgRIIaR; not shown: C-terminal His-tag
T1 chain: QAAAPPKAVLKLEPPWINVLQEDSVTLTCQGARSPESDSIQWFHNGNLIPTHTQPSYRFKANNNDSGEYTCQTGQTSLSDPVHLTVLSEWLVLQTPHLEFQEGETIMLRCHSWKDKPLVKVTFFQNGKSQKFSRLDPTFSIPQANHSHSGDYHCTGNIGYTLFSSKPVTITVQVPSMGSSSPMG
Assay: SPR (BIACORE); KD of SG1 divided by KD of variant;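 also: relative to parent M103205H795-SG1 carrying the SG1 human heavy chain constant region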

Row | KD fold (SG1 = 1) | Binder
1 | 2.2 fold | M103205H795-MY472/M103202L889-SK1 (antibody, human IgG1, kappa, copies: 2 + 2) heavy: QVTLKESGPVLVKPTETLTLTCTVSGIDLSHDDISWVRQAPGKGLEWVGIISYAGSTYYASWAKGRLTISKDTSKNQVVLTMTNMDPVDTATYYCARGVPAYSHGGDLWGQGTLVTVSSASTKGPSVFPLAPSSKSTSGGTAALGCLVKDYFPEPVTVSWNSGALTSGVHTFPAVLQSSGLYSLSSVVTVPSSSLGTQTYICNVNHKPSNTKVDKKVEPKSCDKTHTCPPCPSPELLTGPSVFLFPPKPKDTLMISRTPEVTCVVVDVSDEDPEVKFNWYVDGVEVHNAKTKPREEQYNSTYRVVSVLTVLHQDWLNGKEYKCKVSNKALPKPIEKTISKAKGQPREPQVYTLPPSREEMTKNQVSLTCLVKGFYPSDIAVEWESNGQPENNYKTTPPVLDSDGSFFLYSKLTVDKSRWQQGNVFSCSVMHEALHNHYTQKSLSLSP light: DIVMTQSPATLSLSPGERATLSCTSSQSVYHANWLSWFQQKPGQPPKLLIYWASTLAYGVPSRFSGSGSGTDFTLTISSLQPEDAATYYCAGGYGGGRYAFGQGTKVEIKRTVAAPSVFIFPPSDEQLKSGTASVVCLLNNFYPREAKVQWKVDNALQSGNSQESVTEQDSKDSTYSLSSTLTLSKADYEKHKVYACEVTHQGLSSPVTKSFNRGEC
2 | 3.2 fold | M103205H795-MY474/M103202L889-SK1 (antibody, human IgG1, kappa, copies: 2 + 2) heavy: QVTLKESGPVLVKPTETLTLTCTVSGIDLSHDDISWVRQAPGKGLEWVGIISYAGSTYYASWAKGRLTISKDTSKNQVVLTMTNMDPVDTATYYCARGVPAYSHGGDLWGQGTLVTVSSASTKGPSVFPLAPSSKSTSGGTAALGCLVKDYFPEPVTVSWNSGALTSGVHTFPAVLQSSGLYSLSSVVTVPSSSLGTQTYICNVNHKPSNTKVDKKVEPKSCDKTHTCPPCPVPELLTGPSVFLFPPKPKDTLMISRTPEVTCVVVDVSDEDPEVKFNWYVDGVEVHNAKTKPREEQYNSTYRVVSVLTVLHQDWLNGKEYKCKVSNKALPKPIEKTISKAKGQPREPQVYTLPPSREEMTKNQVSLTCLVKGFYPSDIAVEWESNGQPENNYKTTPPVLDSDGSFFLYSKLTVDKSRWQQGNVFSCSVMHEALHNHYTQKSLSLSP light: DIVMTQSPATLSLSPGERATLSCTSSQSVYHANWLSWFQQKPGQPPKLLIYWASTLAYGVPSRFSGSGSGTDFTLTISSLQPEDAATYYCAGGYGGGRYAFGQGTKVEIKRTVAAPSVFIFPPSDEQLKSGTASVVCLLNNFYPREAKVQWKVDNALQSGNSQESVTEQDSKDSTYSLSSTLTLSKADYEKHKVYACEVTHQGLSSPVTKSFNRGEC
3 | 2.2 fold | M103205H795-MY473/M103202L889-SK1 (antibody, human IgG1, kappa, copies: 2 + 2) heavy: QVTLKESGPVLVKPTETLTLTCTVSGIDLSHDDISWVRQAPGKGLEWVGIISYAGSTYYASWAKGRLTISKDTSKNQVVLTMTNMDPVDTATYYCARGVPAYSHGGDLWGQGTLVTVSSASTKGPSVFPLAPSSKSTSGGTAALGCLVKDYFPEPVTVSWNSGALTSGVHTFPAVLQSSGLYSLSSVVTVPSSSLGTQTYICNVNHKPSNTKVDKKVEPKSCDKTHTCPPCPTPELLTGPSVFLFPPKPKDTLMISRTPEVTCVVVDVSDEDPEVKFNWYVDGVEVHNAKTKPREEQYNSTYRVVSVLTVLHQDWLNGKEYKCKVSNKALPKPIEKTISKAKGQPREPQVYTLPPSREEMTKNQVSLTCLVKGFYPSDIAVEWESNGQPENNYKTTPPVLDSDGSFFLYSKLTVDKSRWQQGNVFSCSVMHEALHNHYTQKSLSLSP light: DIVMTQSPATLSLSPGERATLSCTSSQSVYHANWLSWFQQKPGQPPKLLIYWASTLAYGVPSRFSGSGSGTDFTLTISSLQPEDAATYYCAGGYGGGRYAFGQGTKVEIKRTVAAPSVFIFPPSDEQLKSGTASVVCLLNNFYPREAKVQWKVDNALQSGNSQESVTEQDSKDSTYSLSSTLTLSKADYEKHKVYACEVTHQGLSSPVTKSFNRGEC
